Tests used:
Format in all cases: biochemical
[1] = Sesquiterpene synthase activity assay with radiolabelled FPP (Ag-TLC and GC/MS product analysis); details: for products of FPP turnover, analyzed by Ag-TLC: radiolabelled FPP, FIG. 4
Protocol: (§1) Synthase activity assays were carried out based on the assay described in Vogeli and Chappell, Plant Physiol. 94:1860 (1990) and Vogeli, et al., Plant Physiol. 93:182 (1990). In general, radio-labeled (^3H or ^14C) substrate was incubated with enzyme at room temperature in a buffered magnesium salt solution (200 mM Tris, pH 8, 50 mM Mg chloride, 1 mM DTT, unless otherwise noted); hydrocarbon products were then selectively extracted into an organic solvent such as hexane. The hexane extract generally was treated with silica gel to remove prenyl alcohols and other oxygenated compounds generated by non-enzymatic hydrolysis of substrate, which partition inefficiently into hexane. Hydrocarbon products present in the hexane phase were quantitated by scintillation counting.
(§2) Substrate concentrations typically ranged from 0.1 nanomolar to 100 micromolar. In some assays, the substrate was not radiolabeled. Reactions generally were carried out in triplicate for each substrate concentration. Protein concentration was determined by the Bradford method. For determination of steady-state kinetic parameters, enzyme concentrations were chosen such that generation of products over time was linear throughout the course of the reaction.
(§3) Diterpene synthase assays typically were carried out using ^3H geranylgeranyl diphosphate (GGPP) and enzyme in 250 mM Tris, 10 mM Mg chloride, 1 mM DTT, pH 8.0. Sesquiterpene synthase assays typically were carried out using ^14C or ^3H FPP and enzyme in 100 mM Tris, 30 mM Mg chloride, 1 mM DTT, pH 8.0. Monoterpene synthase assays typically were carried out using ^3H GPP and enzyme. As a control for nonspecific binding of GPP by protein, identical reactions were set up which contained BSA, rather than enzyme.
(§4) Terpenoid hydrocarbon products are not readily separated by thin layer chromatography on normal or reverse-phase plates; however, some can be separated by argentation TLC (Ag-TLC), in which silica plates are first treated with silver nitrate. Ag-TLC described here generally followed the procedure described by Back et al., Arch. Biochem. Biophys. 315:527 (1994). A silica TLC plate was dipped in 15% silver nitrate (aqueous), then dried for 3-5 hours at 110° C. After spotting of tritiated enzymatic products (solvent extract), the plate was developed in benzene:hexane, ethyl acetate (50:50:1, by volume), sprayed with En^3Hance (NEN) fluorography spray, placed on film, and exposed for several days to several weeks. Long exposure times were generally necessary, as silver-nitrate treatment of the TLC plate appeared to cause quenching of the fluorography reagents fluorescence. Alternatively, ^14C labelled products were detected after one to two days without the use of fluorography spray.
Products of FPP turnover by the purified TEAS W273S mutant were analyzed by argentation thin-layer chromatography (Ag-TLC).
Reactions with FPP as substrate were carded out with ^14C FPP (9 μm) and enzyme (160 μm) in reaction buffer (20 μl). After incubating for 30 minutes at room temperature, products made by TEAS C440W/W273S were analyzed by Ag-TLC. […] The new product was distinct from both 5-epi-aristolochene and vetispiradiene. Several other products were also formed, many of which migrated slowly upon argentation TLC.
Reactions with radiolabeled FPP and TEAS Y520F enzyme were carried out essentially as described above. Reaction products were analysed by Ag-TLC and by GC/MS.

[2] = Diterpene synthase activity assay with radiolabelled GGPP (solvent extraction, scintillation counting, Ag-TLC); details: for hexane-extractable products formed from GGPP, analyzed by Ag-TLC: overnight incubation at room temperature, FIG. 3
Protocol: as §1
A subsequent extraction with a more polar organic solvent such as ethyl acetate was sometimes carried out. Oxygenated compounds more efficiently partition into ethyl acetate-type solvents. Compounds present in the ethyl acetate phase were also quantitated by scintillation counting.
as §2, §3, §4
The TEAS W273S enzyme and radiolabelled GGPP were incubated as described above and hydrocarbon products were extracted with hexane. Oxygenated products were then extracted with ethyl acetate.
The mutant TEAS C440W1W273S protein contains a tryptophan residue at position 440 and a serine residue at position 273. Assays with GGPP were carried out using 0.5 micromolar ^3H GGPP, various concentrations of unlabelled GGPP (Echelon), and enzyme. Reactions were incubated for 60 minutes at room temperature. […] Hexane-extractable products of GGPP turnover by the double mutant were analyzed by Ag-TLC. The products included two species (Rf=0.11 and 0.28) that were distinct from the hydrolysis product geranyl geraniol (Rf=0.0).To verify that products generated by TEAS C440W/W273S from GGPP were not the hydrolysis product, geranylgeraniol, a sample was analyzed by Ag-TLC. […]

[3] = Alkylation of enzyme by radiolabeled FPP; details: dependent upon the presence of MgCl2
Protocol: Reactions to determine the products made by TEAS W273E using FPP as substrate were carried out essentially as described above, using radioiabeled FPP. […] The alkylation was dependent upon the presence of MgCl2 in the reaction mixture. In control experiments, boiled W273E-TEAS, as well as wild-type TEAS and BSA, were not alkylated.

alkylation of the enzyme by FPP [3] | Molecule | products of FPP turnover, hexane extract analyzed by GC/MS [1] | products of FPP turnover, analyzed by Ag-TLC [1] | counts in hexane and ethyl acetate extracts after incubation with radiolabelled GGPP ([2]; hydrocarbon products extracted with hexane, oxygenated products with ethyl acetate, compared with buffer alone) | hexane-extractable products formed from GGPP, analyzed by Ag-TLC [2] | conversion of GGPP to hexane-extractable products ([2]; 0.5 micromolar 3H GGPP plus unlabelled GGPP, 60 minutes at room temperature)
– | TEAS W273S: TEAS mutant with serine at position 273 (protein, UniProt Q40577 1-548, looked up, variant W273S) 5-epi-aristolochene synthase: MASAAVANYEEEIVRPVADFSPSLWGDQFLSFSIKNQVAEKYAKEIEALKEQTRNMLLATGMKLADTLNLIDTIERLGISYHFEKEIDDILDQIYNQNSNCNDLCTSALQFRLLRQHGFNISPEIFSKFQDENGKFKESLASDVLGLLNLYEASHVRTHADDILEDALAFSTIHLESAAPHLKSPLREQVTHALEQCLHKGVPRVETRFFISSIYDKEQSKNNVLLRFAKLDFNLLQMLHKQELAQVSRWWKDLDFVTTLPYARDRVVECYFSALGVYFEPQYSQARVMLVKTISMISIVDDTFDAYGTVKELEAYTDAIQRWDINEIDRLPDYMKISYKAILDLYKDYEKELSSAGRSHIVCHAIERMKEVVRNYNVESTWFIEGYTPPVSEYLSNALATTTYYYLATTSYLGMKSATEQDFEWLSKNPKILEASVIICRVIDDTATYEVEKSRGQIATGIECCMRDYGISTKEAMAKFQNMAETAWKDINEGLLRPTPVSTEFLTPILNLARIVEVTYIHNLDGYTHPEKVLKPHIINLLVDSIKI | at least four terpene hydrocarbons | distinct from both 5-epi-aristolochene (Rf=0.78) and vetispiradiene (Rf=0.63) | counts that were significantly higher for both the hexane and ethyl acetate extracts | distinct from the products made by acid-catalyzed loss of diphosphates from GGPP | –
not alkylated | boiled W273E-TEAS: boiled W273E-TEAS used as control in alkylation experiment (protein, UniProt Q40577 1-548, looked up, variant W273E, heat-denatured (boiled), boiled W273E-TEAS used as control in alkylation experiment) 5-epi-aristolochene synthase: MASAAVANYEEEIVRPVADFSPSLWGDQFLSFSIKNQVAEKYAKEIEALKEQTRNMLLATGMKLADTLNLIDTIERLGISYHFEKEIDDILDQIYNQNSNCNDLCTSALQFRLLRQHGFNISPEIFSKFQDENGKFKESLASDVLGLLNLYEASHVRTHADDILEDALAFSTIHLESAAPHLKSPLREQVTHALEQCLHKGVPRVETRFFISSIYDKEQSKNNVLLRFAKLDFNLLQMLHKQELAQVSRWWKDLDFVTTLPYARDRVVECYFEALGVYFEPQYSQARVMLVKTISMISIVDDTFDAYGTVKELEAYTDAIQRWDINEIDRLPDYMKISYKAILDLYKDYEKELSSAGRSHIVCHAIERMKEVVRNYNVESTWFIEGYTPPVSEYLSNALATTTYYYLATTSYLGMKSATEQDFEWLSKNPKILEASVIICRVIDDTATYEVEKSRGQIATGIECCMRDYGISTKEAMAKFQNMAETAWKDINEGLLRPTPVSTEFLTPILNLARIVEVTYIHNLDGYTHPEKVLKPHIINLLVDSIKI | – | – | – | – | –
– | TEAS Y520F: TEAS protein in which Tyr520 is changed to Phe, SEQ ID NO:6 (protein) MASAAVANYEEEIVRPVADFSPSLWGDQFLSFSIDNQVAEKYAQEIEALKEQTRSMLLATGRKLADTLNLIDIIERLGISYHFEKEIDEILDQIYNQNSNCNDLCTSALQFRLLRQHGFNISPEIFSKFQDENGKFKESLASDVLGLLNLYEASHVRTHADDILEDALAFSTIHLESAAPHLKSPLREQVTHALEQCLHKGVPRVETRFFISSIYDKEQSKNNVLLRFAKLDFNLLQMLHKQELAQVSRWWKDLDFVTTLPYARDRVVECYFWALGVYFEPQYSQARVMLVKTISMISIVDDTFDAYGTVKELEAYTDAIQRWDINEIDRLPDYMKISYKAILDLYKDYEKELSSAGRSHIVCHAIERMKEVVRNYNVESTWFIEGYMPPVSEYLSNALATTTYYYLATTSYLGMKSATEQDFEWLSKNPKILEASVIICRVIDDTATYEVEKSRGQIATGIECCMRDYGISTKEAMAKFQNMAETAWKDINEGLLRPTPVSTEFLTPILNLARIVEVTFIHNLDGYTHPEKVLKPHIINLLVDSIKI | same GC retention time as authentic germacrene A and the same mass spectrum as authentic germacrene A | – | – | – | –
– | TEAS C440W: TEAS mutant with tryptophan at position 440 (protein, UniProt Q40577 1-548, looked up, variant C440W) 5-epi-aristolochene synthase: MASAAVANYEEEIVRPVADFSPSLWGDQFLSFSIKNQVAEKYAKEIEALKEQTRNMLLATGMKLADTLNLIDTIERLGISYHFEKEIDDILDQIYNQNSNCNDLCTSALQFRLLRQHGFNISPEIFSKFQDENGKFKESLASDVLGLLNLYEASHVRTHADDILEDALAFSTIHLESAAPHLKSPLREQVTHALEQCLHKGVPRVETRFFISSIYDKEQSKNNVLLRFAKLDFNLLQMLHKQELAQVSRWWKDLDFVTTLPYARDRVVECYFWALGVYFEPQYSQARVMLVKTISMISIVDDTFDAYGTVKELEAYTDAIQRWDINEIDRLPDYMKISYKAILDLYKDYEKELSSAGRSHIVCHAIERMKEVVRNYNVESTWFIEGYTPPVSEYLSNALATTTYYYLATTSYLGMKSATEQDFEWLSKNPKILEASVIIWRVIDDTATYEVEKSRGQIATGIECCMRDYGISTKEAMAKFQNMAETAWKDINEGLLRPTPVSTEFLTPILNLARIVEVTYIHNLDGYTHPEKVLKPHIINLLVDSIKI | single major sesquiterpene hydrocarbon product as well as a small number of minor hydroxylated products | at least one major terpenoid hydrocarbon product | – | no hexane-extractable products were detectable | –
– | TEAS C440W/W273S: TEAS double mutant, tryptophan at position 440 and serine at position 273, SEQ ID NO:10 (protein) MASAAVANYEEEIVRPVADFSPSLWGDQFLSFSIDNQVAEKYAQEIEALKEQTRSMLLATGRKLADTLNLIDIIERLGISYHFEKEIDEILDQIYNQNSNCNDLCTSALQFRLLRQHGFNISPEIFSKFQDENGKFKESLASDVLGLLNLYEASHVRTHADDILEDALAFSTIHLESAAPHLKSPLREQVTHALEQCLHKGVPRVETRFFISSIYDKEQSKNNVLLRFAKLDFNLLQMLHKQELAQVSRWWKDLDFVTTLPYARDRVVECYFSALGVYFEPQYSQARVMLVKTISMISIVDDTFDAYGTVKELEAYTDAIQRWDINEIDRLPDYMKISYKAILDLYKDYEKELSSAGRSHIVCHAIERMKEVVRNYNVESTWFIEGYMPPVSEYLSNALATTTYYYLATTSYLGMKSATEQDFEWLSKNPKILEASVIIWRVIDDTATYEVEKSRGQIATGIECCMRDYGISTKEAMAKFQNMAETAWKDINEGLLRPTPVSTEFLTPILNLARIVEVTYIHNLDGYTHPEKVLKPHIINLLVDSIKI | – | – | – | different from those generated by non-enzymatic degradation of geranylgeranyl diphosphate | converted GGPP to hexane-extractable products

Source: patent US6645762B2, “Synthases” (The Salk Institute for Biological Studies, priority 1998, dated 2003)
